Positions count from the first letter of the chain named.
Legend:
[1] = biological target: T1, cynomolgus monkey FcγRIIa2 extracellular domain, C-terminal His-tag (cynomolgus monkey); assay: SPR (Biacore); KD of SG1 / KD of variant;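 also: relative to parent M103205H795-SG1 carrying the SG1 human heavy chain constant region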
T1 construct: also called cyno FcγRIIa2; cynoFcgRIIa2
T1 chain: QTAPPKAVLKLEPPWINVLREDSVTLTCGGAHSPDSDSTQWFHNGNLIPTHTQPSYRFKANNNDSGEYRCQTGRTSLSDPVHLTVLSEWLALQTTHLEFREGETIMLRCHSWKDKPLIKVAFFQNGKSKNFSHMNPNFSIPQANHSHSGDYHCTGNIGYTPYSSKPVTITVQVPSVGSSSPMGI
Description: (§1) The kinetic analysis of interactions between these antibodies and FcγR was carried out using BIACORE® T200 or BIACORE® 4000 (GE Healthcare). HBS-EP+ (GE Healthcare) was used as the running buffer, and the measurement temperature was set to 25° C. A chip produced by immobilizing Protein A. Protein A/G or mouse anti-human IgG kappa light chain (BD Biosciences) onto a Series S Sensor Chip CM4 or CM5 (GE Healthcare) by the amine-coupling method was used. […] After the measurement, the antibody captured on the chip was washed off by allowing reaction with 10 mM glycine-HCl, pH1.5 and 25 mM NaOH so that the chip was regenerated and used repeatedly. The sensorgrams obtained as measurement results were analyzed by the 1:1 Langmuir binding model using the BIACORE® Evaluation Software to calculate the binding rate constant ka (L/mol/s) and dissociation rate constant kd (l/s), and the dissociation constant KD (mol/L) was calculated from these values. […] Regarding such interactions, KD values were calculated using the following 1:1 binding model described in BIACORE® T100 Software Handbook BR1006-48 Edition AE.
(§2) The behavior of interacting molecules according to the 1:1 binding model on BIACORE® can be described by Equation 1: Req=C·R max/(KD+C)+RI, wherein, Req is a plot of steady-state binding levels to analyte concentration. C is concentration, RI is bulk refractive index contribution in the sample, and Rmax is analyte binding capacity of the surface. When this equation is rearranged, KD can be expressed as Equation 2: KD=C·Rmax/(Req−RI)−C. KD can be calculated by substituting the values of Rmax, RI, and C into Equation 1 or Equation 2. From the current measurement conditions, RI=0, C=2 μmol/L can be used.

[2] = biological target: T2, cynomolgus monkey FcγRIIa3 extracellular domain, C-terminal His-tag (cynomolgus monkey); assay: SPR (Biacore); KD of SG1 / KD of variant;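 also: relative to parent M103205H795-SG1 carrying the SG1 human heavy chain constant region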
T2 construct: also called cyno FcγRIIa3; cynoFcgRIIa3
T2 chain: T1 chain with K127I, N130K, H133P, Q142R
Description: as §1, §2

[3] = biological target: T3, human FcγRIIaH extracellular domain, C-terminal His-tag (human, UniProt P12318 34-217); assay: SPR (Biacore); KD of SG1 / KD of variant;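 also: relative to parent M103205H795-SG1 carrying the SG1 human heavy chain constant region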
T3 construct: also called human FcγRIIa (type H); FcgRIIaH
T3 sequence: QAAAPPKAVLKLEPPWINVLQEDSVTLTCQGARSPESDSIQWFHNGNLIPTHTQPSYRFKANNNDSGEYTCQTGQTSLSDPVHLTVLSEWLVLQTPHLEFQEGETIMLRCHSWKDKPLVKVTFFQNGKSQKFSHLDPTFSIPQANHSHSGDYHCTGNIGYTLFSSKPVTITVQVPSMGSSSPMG
Description: as §1, §2

[4] = biological target: T4, cynomolgus monkey FcγRIIb extracellular domain, C-terminal His-tag (cynomolgus monkey); assay: SPR (Biacore); KD of SG1 / KD of variant;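 also: relative to parent M103205H795-SG1 carrying the SG1 human heavy chain constant region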
T4 construct: also called cyno FcγRIIb; cynoFcγRIIb
T4 chain: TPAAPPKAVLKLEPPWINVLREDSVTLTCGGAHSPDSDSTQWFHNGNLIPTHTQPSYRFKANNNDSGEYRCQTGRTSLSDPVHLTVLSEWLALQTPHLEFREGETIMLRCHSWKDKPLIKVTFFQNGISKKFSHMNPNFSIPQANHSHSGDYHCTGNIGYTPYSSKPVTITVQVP
Description: as §1, §2

[5] = biological target: T5, human FcγRIIIaV extracellular domain, C-terminal His-tag (human, UniProt P08637 17-208); assay: SPR (Biacore); KD of SG1 / KD of variant
T5 construct: also called human FcgRIIIaV; FcgRIIIaV
Description: as §1, §2

[6] = biological target: T6, human FcγRIIb extracellular domain, C-terminal His-tag (human, UniProt P31994 43-217); assay: SPR (Biacore); KD of SG1 / KD of variant
T6 construct: also called human FcgRIIb; FcgRIIb
T6 sequence: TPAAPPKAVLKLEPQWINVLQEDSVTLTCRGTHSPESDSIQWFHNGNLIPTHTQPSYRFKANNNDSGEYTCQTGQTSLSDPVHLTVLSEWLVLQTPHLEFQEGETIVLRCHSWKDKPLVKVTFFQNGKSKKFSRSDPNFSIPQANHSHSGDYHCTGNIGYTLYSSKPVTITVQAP
Description: as §1, §2

[7] = biological target: T7, human FcγRIIaR extracellular domain, C-terminal His-tag (human, UniProt P12318 34-217); assay: SPR (Biacore); KD of SG1 / KD of variant
T7 construct: also called human FcγRIIa (type R); FcgRIIaR
T7 chain: T3 sequence with H134R
Description: as §1, §2

[8] = biological target: T8, cynomolgus monkey FcγRIIIaS extracellular domain, C-terminal His-tag (cynomolgus monkey, UniProt Q8SPW2 21-206 at identity 1.00)); assay: SPR (Biacore); KD of SG1 / KD of variant
T8 construct: also called cyno FcγRIIIaS; cynoFcγRIIIaS
T8 chain: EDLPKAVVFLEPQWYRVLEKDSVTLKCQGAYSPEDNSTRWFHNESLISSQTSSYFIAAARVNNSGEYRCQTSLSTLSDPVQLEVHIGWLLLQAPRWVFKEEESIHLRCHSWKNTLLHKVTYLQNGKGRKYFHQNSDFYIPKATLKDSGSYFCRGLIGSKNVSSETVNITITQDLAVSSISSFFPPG
Description: as §1, §2

[9] = biological target: T9, human FcγRIIIaV extracellular domain, His-tagged (human, UniProt P08637 17-208); assay: SPR, antibody captured, FcgR analyte
T9 construct: also called FcgRIIIaV
T9 sequence (P08637 17-208 F176V): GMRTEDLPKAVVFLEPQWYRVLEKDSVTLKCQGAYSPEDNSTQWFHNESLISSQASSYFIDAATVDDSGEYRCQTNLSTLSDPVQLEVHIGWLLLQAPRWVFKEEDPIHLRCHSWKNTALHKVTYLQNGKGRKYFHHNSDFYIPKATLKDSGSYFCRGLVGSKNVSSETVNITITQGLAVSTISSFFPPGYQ

T5 sequence (P08637 17-208 F176V): as above

B1: M103205H795-MY048/M103202L889-SK1 (antibody, human IgG1, kappa)
heavy: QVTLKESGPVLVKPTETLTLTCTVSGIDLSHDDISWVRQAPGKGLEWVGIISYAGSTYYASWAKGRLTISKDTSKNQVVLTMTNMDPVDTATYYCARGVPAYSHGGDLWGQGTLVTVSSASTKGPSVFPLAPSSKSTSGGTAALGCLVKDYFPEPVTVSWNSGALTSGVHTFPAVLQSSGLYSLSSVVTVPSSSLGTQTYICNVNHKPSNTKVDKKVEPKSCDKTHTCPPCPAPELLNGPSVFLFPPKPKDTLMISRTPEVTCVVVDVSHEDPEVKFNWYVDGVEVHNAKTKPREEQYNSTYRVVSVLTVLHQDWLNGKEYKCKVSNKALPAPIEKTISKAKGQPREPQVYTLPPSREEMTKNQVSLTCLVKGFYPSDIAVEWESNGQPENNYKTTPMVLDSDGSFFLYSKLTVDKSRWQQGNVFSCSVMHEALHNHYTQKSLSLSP
light: DIVMTQSPATLSLSPGERATLSCTSSQSVYHANWLSWFQQKPGQPPKLLIYWASTLAYGVPSRFSGSGSGTDFTLTISSLQPEDAATYYCAGGYGGGRYAFGQGTKVEIKRTVAAPSVFIFPPSDEQLKSGTASVVCLLNNFYPREAKVQWKVDNALQSGNSQESVTEQDSKDSTYSLSSTLTLSKADYEKHKVYACEVTHQGLSSPVTKSFNRGEC
notes: Substitutions introduced into M103205H795-SG1; expressed with M103202L889-SK1 as light chain
KD fold (SG1 = 1) [1]: 3 fold
KD fold (SG1 = 1) [2]: 2.4 fold
KD fold (SG1 = 1) [3]: 0.6 fold
KD fold (SG1 = 1) [4]: 2 fold
KD fold (SG1 = 1) [5]: 0.07 fold
KD fold (SG1 = 1) [6]: 1.4 fold
KD fold (SG1 = 1) [7]: 0.4 fold
KD fold (SG1 = 1) [8]: 0.07 fold

B2: M103205H795-MY070/M103202L889-SK1 (antibody, human IgG1, kappa)
heavy: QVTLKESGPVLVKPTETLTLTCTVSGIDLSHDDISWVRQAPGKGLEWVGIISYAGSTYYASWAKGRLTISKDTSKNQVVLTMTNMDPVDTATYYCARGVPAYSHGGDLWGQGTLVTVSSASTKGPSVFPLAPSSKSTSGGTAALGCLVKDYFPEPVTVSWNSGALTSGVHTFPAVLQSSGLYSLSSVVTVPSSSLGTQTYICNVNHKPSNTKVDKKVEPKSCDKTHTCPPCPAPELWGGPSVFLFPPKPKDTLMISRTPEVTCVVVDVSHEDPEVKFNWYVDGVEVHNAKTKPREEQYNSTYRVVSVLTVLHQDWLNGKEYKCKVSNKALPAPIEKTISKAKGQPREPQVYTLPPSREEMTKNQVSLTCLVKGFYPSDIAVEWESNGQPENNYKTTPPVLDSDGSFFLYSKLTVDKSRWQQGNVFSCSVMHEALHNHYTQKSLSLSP
light: B1 light
notes: Substitution put into M103205H795-SG1
Kd [9]: 700 nM

B3: M103205H795-MY045/M103202L889-SK1 (antibody, human IgG1, kappa)
heavy: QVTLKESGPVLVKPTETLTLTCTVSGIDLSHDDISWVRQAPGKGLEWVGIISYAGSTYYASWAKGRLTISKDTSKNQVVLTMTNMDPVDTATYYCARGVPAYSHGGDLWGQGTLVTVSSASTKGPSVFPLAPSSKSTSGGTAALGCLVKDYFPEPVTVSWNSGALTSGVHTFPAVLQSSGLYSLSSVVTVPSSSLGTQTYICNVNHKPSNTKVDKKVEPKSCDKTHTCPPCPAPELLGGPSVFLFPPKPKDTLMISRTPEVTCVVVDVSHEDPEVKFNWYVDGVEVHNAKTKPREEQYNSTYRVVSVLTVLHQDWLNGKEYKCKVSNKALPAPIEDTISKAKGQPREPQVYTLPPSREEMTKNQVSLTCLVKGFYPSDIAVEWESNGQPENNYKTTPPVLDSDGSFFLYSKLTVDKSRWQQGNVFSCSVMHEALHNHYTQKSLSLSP
light: B1 light
notes: as for B2
Kd [9]: 240 nM

B4: M103205H795-MY044/M103202L889-SK1 (antibody, human IgG1, kappa)
heavy: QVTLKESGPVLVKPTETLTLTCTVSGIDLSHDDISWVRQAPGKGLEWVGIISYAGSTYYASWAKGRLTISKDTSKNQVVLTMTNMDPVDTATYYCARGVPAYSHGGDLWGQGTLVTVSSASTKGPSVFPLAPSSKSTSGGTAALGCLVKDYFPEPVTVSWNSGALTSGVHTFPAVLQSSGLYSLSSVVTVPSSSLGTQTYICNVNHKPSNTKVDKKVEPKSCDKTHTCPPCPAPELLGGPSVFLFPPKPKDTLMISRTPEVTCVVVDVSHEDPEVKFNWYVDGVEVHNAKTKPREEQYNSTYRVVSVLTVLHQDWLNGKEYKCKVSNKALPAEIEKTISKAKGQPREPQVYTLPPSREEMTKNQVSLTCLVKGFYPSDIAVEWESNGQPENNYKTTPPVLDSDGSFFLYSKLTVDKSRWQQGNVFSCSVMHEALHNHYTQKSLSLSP
light: B1 light
notes: as for B2
Kd [9]: 900 nM

B5: M103205H795-MY196/M103202L889-SK1 (antibody, human IgG1, kappa)
heavy: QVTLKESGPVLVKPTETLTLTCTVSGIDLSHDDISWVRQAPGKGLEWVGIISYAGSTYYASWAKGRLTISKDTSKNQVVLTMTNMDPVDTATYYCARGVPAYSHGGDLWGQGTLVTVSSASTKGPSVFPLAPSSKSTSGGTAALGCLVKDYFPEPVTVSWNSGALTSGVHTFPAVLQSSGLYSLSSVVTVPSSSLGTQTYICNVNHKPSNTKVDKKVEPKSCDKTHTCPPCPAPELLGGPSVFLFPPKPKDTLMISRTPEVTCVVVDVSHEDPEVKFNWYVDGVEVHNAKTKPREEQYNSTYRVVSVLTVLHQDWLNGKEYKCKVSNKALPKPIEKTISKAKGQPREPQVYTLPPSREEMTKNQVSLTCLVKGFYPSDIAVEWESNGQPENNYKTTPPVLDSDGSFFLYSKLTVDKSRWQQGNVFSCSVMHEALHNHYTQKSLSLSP
light: B1 light
notes: as for B2
Kd [9]: 2200 nM

B6: M103205H795-MY047/M103202L889-SK1 (antibody, human IgG1, kappa)
heavy: not shown
light: B1 light
notes: as for B1
KD fold (SG1 = 1) [1]: 1.5 fold
KD fold (SG1 = 1) [2]: 0.7 fold
KD fold (SG1 = 1) [3]: 0.2 fold
KD fold (SG1 = 1) [4]: 0.7 fold
KD fold (SG1 = 1) [6]: 1.2 fold
KD fold (SG1 = 1) [7]: 0.5 fold
KD fold (SG1 = 1) [8]: 0.05 fold

B7: M103205H795-MY063/M103202L889-SK1 (antibody, human IgG1, kappa)
heavy: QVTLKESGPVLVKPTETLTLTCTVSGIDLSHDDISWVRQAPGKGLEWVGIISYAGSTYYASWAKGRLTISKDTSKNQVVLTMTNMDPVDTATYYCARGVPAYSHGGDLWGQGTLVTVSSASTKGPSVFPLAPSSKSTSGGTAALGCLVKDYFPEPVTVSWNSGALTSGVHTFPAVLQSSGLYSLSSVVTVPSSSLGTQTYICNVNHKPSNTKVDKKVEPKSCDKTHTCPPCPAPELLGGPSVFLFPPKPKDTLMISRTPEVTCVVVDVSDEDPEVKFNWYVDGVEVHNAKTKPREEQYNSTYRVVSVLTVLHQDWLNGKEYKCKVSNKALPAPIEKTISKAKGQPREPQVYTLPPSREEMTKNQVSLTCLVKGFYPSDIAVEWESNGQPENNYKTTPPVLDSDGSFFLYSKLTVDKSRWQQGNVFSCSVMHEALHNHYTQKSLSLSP
light: B1 light
notes: as for B2
Kd [9]: 160 nM

B8: M103205H795-MY124/M103202L889-SK1 (antibody, human IgG1, kappa)
heavy: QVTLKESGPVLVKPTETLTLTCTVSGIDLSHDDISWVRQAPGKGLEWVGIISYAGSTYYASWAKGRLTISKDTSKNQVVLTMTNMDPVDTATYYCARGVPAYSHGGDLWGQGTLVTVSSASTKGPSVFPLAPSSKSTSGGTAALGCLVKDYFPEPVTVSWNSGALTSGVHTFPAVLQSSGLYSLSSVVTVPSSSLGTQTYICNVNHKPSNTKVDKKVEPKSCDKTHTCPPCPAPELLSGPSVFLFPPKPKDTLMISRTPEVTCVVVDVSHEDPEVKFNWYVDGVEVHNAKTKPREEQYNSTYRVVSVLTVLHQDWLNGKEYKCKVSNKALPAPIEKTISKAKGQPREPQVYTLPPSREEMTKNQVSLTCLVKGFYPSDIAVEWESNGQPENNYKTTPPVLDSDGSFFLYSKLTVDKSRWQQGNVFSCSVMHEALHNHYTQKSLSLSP
light: B1 light
notes: as for B2
Kd [9]: 5200 nM

B9: M103205H795-MY064/M103202L889-SK1 (antibody, human IgG1, kappa)
heavy: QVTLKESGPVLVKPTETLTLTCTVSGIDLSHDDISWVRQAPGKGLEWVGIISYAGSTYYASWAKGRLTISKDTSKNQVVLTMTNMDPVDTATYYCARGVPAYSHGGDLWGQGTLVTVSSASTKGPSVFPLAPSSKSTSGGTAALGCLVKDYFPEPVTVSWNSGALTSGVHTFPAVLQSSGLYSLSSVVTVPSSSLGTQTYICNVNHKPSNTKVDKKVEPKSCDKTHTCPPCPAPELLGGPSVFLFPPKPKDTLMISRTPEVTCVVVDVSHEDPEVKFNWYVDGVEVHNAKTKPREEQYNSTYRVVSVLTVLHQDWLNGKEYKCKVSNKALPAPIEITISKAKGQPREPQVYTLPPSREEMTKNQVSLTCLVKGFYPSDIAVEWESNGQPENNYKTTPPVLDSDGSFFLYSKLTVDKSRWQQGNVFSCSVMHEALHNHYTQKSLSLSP
light: B1 light
notes: as for B2
Kd [9]: 220 nM

B10: M103205H795-MY065/M103202L889-SK1 (antibody, human IgG1, kappa)
heavy: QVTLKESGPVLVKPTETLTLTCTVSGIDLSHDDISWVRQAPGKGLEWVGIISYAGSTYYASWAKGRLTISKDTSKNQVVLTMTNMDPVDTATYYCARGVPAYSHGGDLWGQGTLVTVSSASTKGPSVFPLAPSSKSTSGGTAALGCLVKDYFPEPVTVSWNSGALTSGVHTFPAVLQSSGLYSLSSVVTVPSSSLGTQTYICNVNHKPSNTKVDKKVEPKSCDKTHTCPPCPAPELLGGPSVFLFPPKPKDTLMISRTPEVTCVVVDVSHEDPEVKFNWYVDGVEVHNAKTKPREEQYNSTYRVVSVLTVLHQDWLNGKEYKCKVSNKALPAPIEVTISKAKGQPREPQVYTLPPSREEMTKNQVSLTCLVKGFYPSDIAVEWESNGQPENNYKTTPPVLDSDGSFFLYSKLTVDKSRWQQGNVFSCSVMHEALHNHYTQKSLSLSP
light: B1 light
notes: as for B2
Kd [9]: 230 nM

B11: M103205H795-MY001/M103202L889-SK1 (antibody, human IgG1, kappa)
heavy: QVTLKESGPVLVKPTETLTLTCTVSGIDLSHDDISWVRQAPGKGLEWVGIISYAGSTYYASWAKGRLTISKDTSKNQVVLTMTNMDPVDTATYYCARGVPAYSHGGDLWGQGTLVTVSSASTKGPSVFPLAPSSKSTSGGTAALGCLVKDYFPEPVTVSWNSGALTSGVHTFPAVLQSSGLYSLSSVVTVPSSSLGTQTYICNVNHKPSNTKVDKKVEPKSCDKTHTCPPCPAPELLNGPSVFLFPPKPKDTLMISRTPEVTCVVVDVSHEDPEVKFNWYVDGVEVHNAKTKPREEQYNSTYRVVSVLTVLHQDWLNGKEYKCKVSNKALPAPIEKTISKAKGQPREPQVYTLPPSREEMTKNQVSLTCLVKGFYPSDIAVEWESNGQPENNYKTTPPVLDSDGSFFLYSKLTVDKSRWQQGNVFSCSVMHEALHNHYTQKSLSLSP
light: B1 light
notes: as for B1
KD fold (SG1 = 1) [1]: 1.4 fold
KD fold (SG1 = 1) [2]: 1.1 fold
KD fold (SG1 = 1) [3]: 0.2 fold
KD fold (SG1 = 1) [4]: 1 fold
KD fold (SG1 = 1) [5]: 0.04 fold
KD fold (SG1 = 1) [6]: 0.6 fold
KD fold (SG1 = 1) [7]: 0.1 fold
KD fold (SG1 = 1) [8]: 0.05 fold
